The target in one assay is HBsAg adr. In words: ELISA. Background: In an ELISA, binding on a coated surface is turned into a signal by an enzyme label.
Another assay addresses HBsAg ayw (hepatitis B virus). Nature of the assay: ELISA.

B1: HBC34 (antibody, V domains shown)
VH: ELQLVESGGGWVQPGGSQRLSCAASGRIFRSFYMSWVRQAPGKGLEWVATINQDGSEKLYVDSVKGRFTISRDNAKNSLFLQMNNLRVEDTAVYYCAAWSGNSGGMDVWGQGTTVSVSS
VL: SYELTQPPSVSVSPGQTVSIPCSGDKLGNKNVCWFQHKPGQSPVLVIYEVKYRPSGIPERFSGSNSGNTATLTISGTQAMDEAAYFCQTWDSTTVVFGGGTRLTVL
The term EC50 denotes the concentration at which the effect is half-maximal. High values mean a less potent agent, low ones a more potent agent. Regarding B1, the EC50 amounted to 6 ng/mL with HBsAg adr and 10 ng/mL with HBsAg ayw.

Values taken from patent US20190016785A1 (published 2019).
